{"source": "paper PMC12362114", "key": {"[1]": {"test": "anti-Flag Western blot, Hep3B lysates", "conditions": "glycan lost; control: wild type 3xFlag-FASN"}, "[2]": {"test": "BODIPY 493/503 staining, confocal, droplet count", "conditions": "glycan lost; control: wild type 3xFlag-FASN"}, "[3]": {"test": "cell fractionation (membrane vs cytosol), Western blot", "conditions": "glycan lost; control: wild type 3xFlag-FASN"}, "[4]": {"test": "cycloheximide chase 0-24 h, protein remaining", "conditions": "glycan lost; control: wild type 3xFlag-FASN"}, "[5]": {"molecular_target": "3xFlag-FASN wild type (fatty acid synthase) (UniProt P49327)", "test": "native gel or EMSA; lysates of transfected Hep3B cells (10 mM Tris/HCl, 1 mM EDTA, 1 mM EGTA, 0.5% Triton X-100, pH 7.5) on a 4-to-10% gradient gel, 50 V overnight at 4 °C, blotted for 3xFlag-FASN; monomers (~250 kDa) and dimers (~500 kDa)"}}}
{"substance": "Fatty Acid Synthase (FASN): S595A", "values": [{"measurement": "expression_or_secretion", "setting": "[1]", "value": "decreases"}, {"measurement": "other: lipid droplet number (activity proxy)", "setting": "[2]", "value": "no change"}, {"measurement": "localisation_or_trafficking", "setting": "[3]", "value": "no change"}]}
{"substance": "Fatty Acid Synthase (FASN): T980A", "values": [{"measurement": "expression_or_secretion", "setting": "[1]", "value": "decreases"}, {"measurement": "degradation_or_half_life", "setting": "[4]", "value": "decreases"}, {"measurement": "localisation_or_trafficking", "setting": "[3]", "value": "decreases"}]}
{"substance": "3xFlag-FASN wild type (fatty acid synthase), P49327 1-2511", "values": [{"measurement": "stoichiometry N", "setting": "[5]", "value": 2}]}
